Experiments:
[1] = Aerosol characterisation by impaction (Marple-Miller / Cascade Impactor); assay type: physicochemical
Experimental: In order to determine the aerosol performance of the protein particles, in vitro testing of the particles was assessed using a 5 stage Marple-Miller Impactor (Model 160, MSP Corporation, USA) with cut-off diameters of […]. The Marple-Miller impactor consisted of a stainless steel inlet throat, five impaction stages and an integral filter stage. The stages were previously coated with propylene glycol/methanol (50:50) to prevent particle bounce, thus minimising the probability of carry over of coarse particles onto lower stages.
A mass of 10-20 mg of insulin was weighed into a gelatin capsule (size 3, Park Davis, Australia) and was immediately dispersed by a powder inhaler device, Dinkihaler (Aventis, Frankfurt, Germany) into the Marple Miller Impactor at 60 L/min using a vacuum source (ERWEKA GMBH, Germany).
The fraction of the protein recovered in each stage was calculated by measuring the absorbance of the protein solution against the absorbance of a standard 1% solution of insulin.

[2] = Median particle size by laser diffraction; assay type: physicochemical; conditions: for median particle size: laser diffraction, agglomerated insulin powder, Example 5
Description: These fine insulin particles may aggregate to form larger particles due to intermolecular interaction between the molecules. […] Insulin precipitated as nano-sized particles, was also agglomerated to micron-sized particles.

[3] = Biochemical integrity by size exclusion chromatography (monomer content); assay type: physicochemical; conditions: for biological activity as indicated by the in vitro test for monomer content: after processing with the anti-solvent
Experimental: A protein-Pak 125 column (Waters, USA) was used for insulin. The mobile phase consisted of 50 mM sodium phosphate buffer at pH 3 with 300 mM sodium chloride. The powder samples were dissolved to prepare 1 mg/mL solution in deionised water by gentle shaking for 10 minutes to have complete dissolution. The supernatant was filtered through […] membrane filter and then injected into the HPLC column. […] The software Millennium 3.5 was used in the quantification of the monomer content.

[4] = Particle size and morphology by SEM; assay type: physicochemical
Description: These fine insulin particles may aggregate to form larger particles due to intermolecular interaction between the molecules.

[5] = values reported in the literature; cited from earlier work
[6] = Insulin deamidation testing by reverse phase HPLC; assay type: physicochemical; conditions: 2 mg/mL, after particle formation
Experimental: In order to determine the percentage of insulin that was deamidated by the process, a test of the insulin was performed using high performance liquid chromatography (HPLC). A reverse phase column (Symmetry® C18, 5 μm packing, 4.6 mm×150 mm) was used to separate the deamidated from the non-deamidated insulin. The gradient method was used with eluents 0.1% trifluoroacetic acid/acetonitrile 26% to 33% and the flow rate of 1 mL/min. The absorbance was monitored at 280 nm.
The percentage of deamido insulin was determined by comparing the peak area of the degradation product to the area of standard insulin containing the same concentration of insulin (2 mg/mL).

Row | Substance | FPM (%) fine particle mass, mass fraction of particles below 5 μm ([1]; 2-stage process) [%] | D(0.5, V) median particle size based on volume ([2]; 2-stage process) | D(0.5, V) median particle size based on volume ([2]; single stage production unit) | biological activity as indicated by the in vitro test for monomer content [3] | increase in the amount of material less than 5 μm aerodynamic diameter ([1]; 2-stage versus single stage process) [%] | fraction of particles with a size >10 μm ([1]; aerodynamic particle size distribution, FIG. 4) | FPM (%) fine particle mass, mass fraction of particles below 5 μm ([1]; single stage production unit) [%] | size of nano-sized particles ([4]; modified dual vessel apparatus (FIG. 10b)) | size of nano-sized particles ([4]; single-stage apparatus (FIG. 9b)) | fine particle fraction (% <5 μm) ([1]; Marple Miller Impactor, Dinkihaler, 60 L/min) | median particle size [2] [μm] | median particle size ([2]; listed as Insulin) | maximum FPM obtained by other methods [5] [%] | percentage of deamido insulin [6] [%] | monomer content ([3]; 1 mg/mL in deionised water, after particle formation) [%]
1 | CO2-ethanol: Insulin particles precipitated using carbon dioxide modified with 20 mol % ethanol as anti-solvent (comparison) | 21.9 | 8.2 +/− 0.6 | 11.8 +/− 1.6 | significant deactivation | – | – | – | – | – | – | – | – | – | – | –
2 | Ethane-ethanol | 43.5 | 4.8 +/− 0.4 | 12.8 +/− 1.0 | retention of biological activity | 100 | around 45% | 20.0 | – | – | – | – | – | – | – | –
3 | insulin: Low endotoxin bovine insulin (Sigma), precipitated as fine particles from aqueous solution by the ASES process | 45 | – | – | – | – | – | 20 | 50-500 nm | 50-500 nm | at least 42% | 5 | about 5 μm | ≤ 10 | 3.0 | 99.5

Reference: patent US20030013634A1, “Synthesis of small particles” (priority 2000, published 2003)
